What was measured:
[1] = test system: small intestine endothelial cells (Caco-2); assay: Cytotoxicity (EZ-Cytox, TEM morphology) in small intestine endothelial cells; assay type: cell-based, human; settings: Caco-2, gold equivalent 10 μM, 24 hours
Description: (§1) Specifically, human umbilical vein endothelial cells (HUVECs) and small intestine endothelial cells (Caco-2) were seeded in 96-well plates at a seeding density of 5×10^3 cells for each well and incubated for 24 hours in a CO2 incubator. Next, AuNP, Ce6-AuNP and Lf-PEG-AuNP (gold equivalent concentration of 10 μM) were applied for 24 hours. Next, after washing with PBS buffer, wells were treated with a culture medium containing EZ-Cytox at 37° C. and 5% CO2 for 4 hours. In this case, the absorbance of the medium was measured with a micro-well plate reader at a wavelength of 450 nm, and the results are illustrated in FIGS. 16, 17A and 17B.

[2] = PTT efficiency and photothermal heating profile under 532 nm PTT laser in vials; assay type: physicochemical
[3] = test system: human umbilical vein endothelial cells (HUVECs); assay: Cytotoxicity (EZ-Cytox, TEM morphology) in vascular endothelial cells; assay type: cell-based; settings: gold equivalent 10 μM, 24 hours
Description: as §1

[4] = 532 nm, 4 W/cm^2, 240 sec, gold equivalent 10 μM

B1: AuNP-Lf: PEGylated Lf-conjugated AuNP (conjugate, UniProt P02788 20-710, looked up)
Lactotransferrin: GRRRSVQWCAVSQPEATKCFQWQRNMRKVRGPPVSCIKRDSPIQCIQAIAENRADAVTLDGGFIYEAGLAPYKLRPVAAEVYGTERQPRTHYYAVAVVKKGGSFQLNELQGLKSCHTGLRRTAGWNVPIGTLRPFLNWTGPPEPIEAAVARFFSASCVPGADKGQFPNLCRLCAGTGENKCAFSSQEPYFSYSGAFKCLRDGAGDVAFIRESTVFEDLSDEAERDEYELLCPDNTRKPVDKFKDCHLARVPSHAVVARSVNGKEDAIWNLLRQAQEKFGKDKSPKFQLFGSPSGQKDLLFKDSAIGFSRVPPRIDSGLYLGSGYFTAIQNLRKSEEEVAARRARVVWCAVGEQELRKCNQWSGLSEGSVTCSSASTTEDCIALVLKGEADAMSLDGGYVYTAGKCGLVPVLAENYKSQQSSDPDPNCVDRPVEGYLAVAVVRRSDTSLTWNSVKGKKSCHTAVDRTAGWNIPMGLLFNQTGSCKFDEYFSQSCAPGSDPRSNLCALCIGDEQGENKCVPNSNERYYGYTGAFRCLAENAGDVAFVKDVTVLQNTDGNNNEAWAKDLKLADFALLCLDGKRKPVTEARSCHLAMAPNHAVVSRMDKVERLKQVLLHQQAKFGRNGSDCPDKFCLFQSETKNLLFNDNTECLARLHGKTTYEKYLGPQYVAGITNLKKCSTSPLLEACEFLRK
modifications: PEGylated gold nanoparticle conjugate
cytotoxicity and morphological changes [1]: not detected
PTT efficiency / heat generation (in words) ([2]; 532 nm PTT laser, 4 W/cm^2): higher PTT efficiency
Maximum temperature (Tmax) [2, 4]: 56.3 ± 0.5 °C
PTT efficiency (Tmax − T0) [2, 4]: 29.6 ± 0.2 °C
cytotoxicity and morphological changes [3]: not detected
